Tests used:
HeLa Kyoto [1] = test: solubility change mitosis vs G1/S (difference of NP-40 vs SDS log2 ratios) (log2 ratio difference); higher = more soluble in mitosis
HeLa Kyoto [2] = test: melting temperature (median over replicates), in situ; higher = more thermally stable
HeLa Kyoto [3] = test: thermal stability score vs G1/S (z-score of summed log2 fold changes over temperatures); higher = more thermally stable than in G1/S
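For melting temperature (median over replicates), in situ in this document: HeLa Kyoto cells synchronized by double thymidine or nocodazole block, proteins quantified by TMT10plex mass spectrometry, three independent biological replicates.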
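For solubility change mitosis vs G1/S (difference of NP-40 vs SDS log2 ratios) in this document: synchronized HeLa Kyoto cells (double thymidine block for G1/S, nocodazole release for mitosis), protein amounts in NP-40 versus SDS lysates quantified by mass spectrometry, three biological replicates.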
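For thermal stability score vs G1/S (z-score of summed log2 fold changes over temperatures) in this document: synchronized HeLa Kyoto cells, proteins quantified by TMT10plex mass spectrometry, three biological replicates, mitosis taken 0.5 h after nocodazole release, G1/S directly after double thymidine block.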

Substance	solubility change mitosis (log2) (HeLa Kyoto [1])	further results
HMGN2	1.68	–
POLR2I	0.429	–
MRPL22	-0.00907	–
MRPS28	0.31	–
MRPL17	-0.0699	–
MRPL50	0.178	–
PTDSS1	0.124	–
MRPL42	0.296	–
RPLP0	0.6	–
RPL26	0.817	–
MRPS26	0.0692	–
MRPL21	0.00832	–
PACSIN3	0.0183	–
MRPL57	-0.109	–
MRTO4	0.303	–
RPS20	0.612	–
CTSB	-0.123	–
MRPL38	-0.0167	–
ACTR2	-0.105	–
RPL10	0.638	–
MRPL49	0.257	–
DLG1	-0.0806	–
RPS24	0.772	–
RPS23	0.687	–
PPIA	-0.0495	–

Substance	solubility change mitosis (log2) (HeLa Kyoto [1])	further results
GTPBP4	0.746	–
MRPL55	0.249	–
MRPS2	0.0234	–
RPS17	0.529	–
TMEM245	0.113	–
TTR	0.336	–
TPCN1	-0.0955	–
MRPL19	0.048	–
WDR61	-0.0946	–
POFUT1	-0.148	–
RPL14	0.811	–
MRPL15	0.041	–
CDC73	-0.0838	–
RPL18A	0.618	–
ABCE1	-0.151	–
RPL10A	0.596	–
BRD4	0.176	–
RTF1	0.0675	–
RPS19	1.02	–
ICT1	0.134	–
MRPL16	0.059	–
MRSPVRDLARNDGEESTDRTPLLPGAPRAEAAPVCCSARYNLAILAFFGFFIVYALRVNLSVALVDMVDSNTTLEDNRTSKACPEHSAPIKVHHNQTGKKYQWDAETQGWILGSFFYGYIITQIPGGYVASKIGGKMLLGFGILGTAVLTLFTPIAADLGVGPLIVLRALEGLGEGVTFPAMHAMWSSWAPPLERSKLLSISYAGAQLGTVISLPLSGIICYYMNWTYVFYFFGTIGIFWFLLWIWLVSDTPQKHKRISHYEKEYILSSLRNQLSSQKSVPWVPILKSLPLWAIVVAHFSYNWTFYTLLTLLPTYMKEILRFNVQENGFLSSLPYLGSWLCMILSGQAADNLRAKWNFSTLCVRRIFSLIGMIGPAVFLVAAGFIGCDYSLAVAFLTISTTLGGFCSSGFSINHLDIAPSYAGILLGITNTFATIPGMVGPVIAKSLTPDNTVGEWQTVFYIAAAINVFGAIFFTLFAKGEVQNWALNDHHGHRH [SLC17A5]	–	melting temperature (HeLa Kyoto [2]; cell cycle stage: G1/S): 57.3 °C; melting temperature (HeLa Kyoto [2]; cell cycle stage: mitosis): 57.6 °C; thermal stability score (HeLa Kyoto [3]; cell cycle stage: early G1 (4.5 h after nocodazole release)): -3.39; thermal stability score (HeLa Kyoto [3]; cell cycle stage: mitosis): -4.02
LAMTOR5	-0.0394	–
RPSA	0.449	–
POLR2H	-0.00215	–
